In patent US20210101970A1 (Pfizer, published 2021):
One block for each binder: values may come before it.

Key:
human CXCR5 [1] = target: T1, human CXCR5 (human, UniProt P32302 1-372); assay: cell-based or functional assay
T1 sequence: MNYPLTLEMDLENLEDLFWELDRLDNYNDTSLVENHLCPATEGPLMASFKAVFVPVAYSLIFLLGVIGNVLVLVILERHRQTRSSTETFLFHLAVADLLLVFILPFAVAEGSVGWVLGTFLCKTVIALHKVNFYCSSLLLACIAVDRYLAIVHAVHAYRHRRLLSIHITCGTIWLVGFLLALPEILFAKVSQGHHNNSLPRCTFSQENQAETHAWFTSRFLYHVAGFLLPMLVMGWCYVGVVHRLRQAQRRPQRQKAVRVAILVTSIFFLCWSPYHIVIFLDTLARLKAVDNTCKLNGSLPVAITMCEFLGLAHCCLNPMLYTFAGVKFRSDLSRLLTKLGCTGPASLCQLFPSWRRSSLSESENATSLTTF

cynomolgus monkey CXCR5 [2] = target: T2, cynomolgus monkey CXCR5 (cynomolgus monkey, UniProt P32302 1-372 (human entry)); assay: flow cytometry, cynomolgus PBMC Tfh-like cells
T2 construct: also called cynoCXCR5; NHP CXCR5
T2 chain: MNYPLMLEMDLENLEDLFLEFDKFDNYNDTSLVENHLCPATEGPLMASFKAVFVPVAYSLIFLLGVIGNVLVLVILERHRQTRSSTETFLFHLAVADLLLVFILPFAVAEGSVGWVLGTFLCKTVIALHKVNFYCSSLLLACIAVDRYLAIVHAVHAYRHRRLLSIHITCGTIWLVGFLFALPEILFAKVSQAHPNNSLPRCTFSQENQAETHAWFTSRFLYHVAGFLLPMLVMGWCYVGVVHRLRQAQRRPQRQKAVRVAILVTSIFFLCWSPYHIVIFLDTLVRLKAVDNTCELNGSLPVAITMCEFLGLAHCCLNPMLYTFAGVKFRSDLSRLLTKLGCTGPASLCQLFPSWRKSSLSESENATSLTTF
Method: The apparent affinity for cell surface CXCR5 of chimeric and humanized CXCR5 fucosylated and afucosylated antibodies was assessed. More specifically, to determine the apparent affinity of chimeric and humanized CXCR5 antibodies to CXCR5-expressing cells, cell binding experiments were performed on human and cynomolgus monkey peripheral blood mononuclear cells (PBMCs) and human tonsillar mononuclear cells (TMCs). The apparent affinity of CXCR5 mab binding to CXCR5+ cells (B cells, bona fide Tfh cells, and circulating Tfh-like cells) was calculated as the EC50 of equilibrium binding titration curves in which the geometric mean fluorescence intensity (gMFI) of the antigen binding population was quantified by flow cytometry.
Following isolation, PBMCs were plated at a density of 1.0×10⁵ cells per well and CD4+ TMCs were plated at a density of 2.0×10⁵ cells per well in isolation buffer (PBS containing 1% FBS and 1 mM EDTA) in 96 well U-bottom plates. The plates were then centrifuged at 1500 rpm for 5 minutes at room temperature. PBMCs and CD4+ TMCs were resuspended in Fluorescence-activated cell sorting (FACS) buffer (PBS containing 1% FBS) containing human crystallized fragment Fc block (2 μL per well; Biolegend) and 4-fold serial dilutions of the antibodies (11-point dilution series, beginning at 5000 ng/mL for PBMCs and 312.5 ng/mL for CD4+ TMCs) and incubated on ice for 2 hours. […]

cynomolgus monkey CXCR5 [3] = target: T2, cynomolgus monkey CXCR5; assay: flow cytometry on cynoCXCR5-300.19 cells
human CXCR5 [4] = target: T1, human CXCR5; assay: flow cytometry, B cells from human PBMCs (FIG. 5); comparator 2C9
human CXCR5 [5] = target: T1, human CXCR5; assay: flow cytometry on Raji cells, fucosylated chimeric antibody
Method: The fucosylated chimeric antibodies were then purified using protein A columns. The apparent affinity (cell binding EC50s) of chimeric antibody binding to Raji cells was determined by flow cytometry using a FACSVerse Analyzer (BD Bioscience, Franklin Lakes, N.J.) and are shown in Table 3.

CXCR4 = target: T3, CXCR4 (human, UniProt P61073 1-352); assay: flow cytometry (GMFI) on Jurkat cells, which express CXCR4; chimeric antibody, goat anti-human PE
T3 construct: whole, on cells
T3 sequence (P61073 whole entry): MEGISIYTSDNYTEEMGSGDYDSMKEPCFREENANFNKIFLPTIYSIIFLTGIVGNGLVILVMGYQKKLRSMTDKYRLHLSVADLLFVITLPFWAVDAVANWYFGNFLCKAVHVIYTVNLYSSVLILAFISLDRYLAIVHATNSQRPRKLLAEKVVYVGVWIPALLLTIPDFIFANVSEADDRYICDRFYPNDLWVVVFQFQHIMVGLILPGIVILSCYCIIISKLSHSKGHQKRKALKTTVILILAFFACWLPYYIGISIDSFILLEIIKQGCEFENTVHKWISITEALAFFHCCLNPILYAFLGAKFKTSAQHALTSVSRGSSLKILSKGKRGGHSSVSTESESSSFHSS
Method: To determine the specificity of the antibodies for CXCR5, the binding of the antibodies to cells expressing other […] was assessed. Briefly, FlowCellect chemokine receptor cell lines expressing CXCR1, CXCR2, or CXCR3 (EMD Millipore, Billerica, Mass.), and Jurkats (ATCC, Manassas, Va.), which express CXCR4, were stained with 5 μg/ml or 10 μg/ml of each anti-CXCR5 chimeric antibody. The cells were then incubated with goat anti-human conjugated with PE (Southern Biotech, Birmingham, Ala.) prior to analysis by flow cytometry using a FACSVerse Analyzer (BD Biosciences, Franklin Lakes, N.J.).

ADCC (EC50, pM) (human CXCR5 [1]): 2.38 pM
EC50 (cynomolgus monkey CXCR5 [2]): 0.0105 nM
B1: Afucosyl humanized 11G2 154/155 (antibody, human IgG1, kappa, V domains shown)
VH: EVQLVESGGGLVQPGGSLRLSCAASGFTFTDFYMSWVRQAPGKGLEWVGFIRNKANGYTTEYSASVKGRFTISRDNAKNSLYLQMNSLRAEDTAVYYCARVYGSTLHYWGQGTLVTVSS
VL: DIQMTQSPSSLSASVGDRVTITCRASESVEYHGTSLMHWYQQKPGKAPKLLIYAASNVESGVPSRFSGSGSGTDFTLTISSLQPEDFATYYCQQSRKVPWTFGQGTKVEIKR
modifications: afucosylated Fc glycan (Asn297)
notes: also called afucosyl h11G2 XC154/XC155; afucosylated h11G2 VL XC154/VH XC155

EC50 (cynomolgus monkey CXCR5 [3]): 0.131 nM
EC50 (human CXCR5 [4]): 0.0624 nM
B2: 2C9 (reference antibody) (antibody, human IgG1, kappa, V domains shown)
VH: EVQLVESGGGLVKPGGSLRLSCAASGFTFSTNAMNWVRQAPGKGLERVARIRSKSNNYATYYADSVKDRFTISRDDSKNTLYLQMNSLKTEDTAVYYCVTMIPFAYWGQGTLVTVSS
VL: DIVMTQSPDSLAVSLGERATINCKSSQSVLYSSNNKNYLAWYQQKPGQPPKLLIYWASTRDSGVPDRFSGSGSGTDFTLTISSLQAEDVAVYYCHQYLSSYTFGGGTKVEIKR
notes: fucosylated

EC50 (human CXCR5 [5]): 0.0175 nM
B3: Chimeric 11G2 (antibody, human IgG1, kappa, V domains shown)
VH: EVKLVESGGGLVQPGGSLRLSCATSGFTFTDFYMSWVRQPPGRALEWLGFIRNKANGYTTEYSASVKGRFTISRDNSQSILYLQMNTLRAGDSATYYCVRVYGSTLHYWGQGTILTVSS
VL: DVVVTQSPDSLAVSLGQRATISCRASESVEYHGTSLMHWYQQKPGQPPKLLIYAASNVESGVPARFSGSGSGTDFSLNIHPVEEGDIAMYFCQQSRKVPWTFGGGTKLEIKR
notes: mouse V regions on human IgG1/kappa; also called 11G2 (chimeric)
binding result (CXCR4): no binding (tested: 5 or 10 µg/ml (not on the sheet))
